In patent US20190144543A1 (TAYU HUAXIA BIOTECH MEDICAL GROUP, published 2019):
Residue numbers refer to the chain shown, from its start.

B1: Variant 3 (TY101) (humanized, VH variant a / VK variant c) (antibody, V domains shown)
VH: EVQLVESGGGLVQPGGSLRLSCAASGFTFSSYTMSWVRQAPGKGLEWVSYISHGGGDTYYADSVKGRFTISRDNSKNTLYLQMNSLRAEDTAVYYCARHSGYERGYYYVMDYWGQGTLVTVSS
VL: DIQLTQSPDSLSVSLGERATINCKASESVDYYGFSFLNWFQQKPGQPPKLLIYAASNRQSGVPDRFSGSGSGTDFTLTISSLQAEDVAVYFCQQSKEVPWTFGQGTKLEIKR
notes: hIgG4 is the negative control; also called mutant combination 3
B2: TY101-4G1 (antibody, V domains shown)
VH: B1 VH
VL: B1 VL
notes: TY101 is Variant 3 (VH a, VK c); isotype control is hIgG4; also called TY101 clone TY101-4G1
B3: TY101-01-09 (antibody, V domains shown)
VH: B1 VH
VL: B1 VL
notes: TY101 is Variant 3 (VH a, VK c); isotype control is hIgG4; also called TY101 clone TY101-01-09
B4: TY101-04-T3-05 (antibody, V domains shown)
VH: B1 VH
VL: B1 VL
notes: TY101 is Variant 3 (VH a, VK c); isotype control is hIgG4; also called TY101 clone TY101-04-T3-05
B5: Variant 4 (humanized, VH variant b / VK variant a) (antibody, V domains shown)
VH: B1 VH with A61P
VL: B1 VL with Q3V, L4M, S12A, A25S, Q59E, F91Y
notes: also called mutant combination 4

Tests used:
[1] = molecular target: T1, human PD-1 (hPD-1) expressed on cells (human, UniProt Q15116 25-288)
T1 sequence (Q15116 25-288): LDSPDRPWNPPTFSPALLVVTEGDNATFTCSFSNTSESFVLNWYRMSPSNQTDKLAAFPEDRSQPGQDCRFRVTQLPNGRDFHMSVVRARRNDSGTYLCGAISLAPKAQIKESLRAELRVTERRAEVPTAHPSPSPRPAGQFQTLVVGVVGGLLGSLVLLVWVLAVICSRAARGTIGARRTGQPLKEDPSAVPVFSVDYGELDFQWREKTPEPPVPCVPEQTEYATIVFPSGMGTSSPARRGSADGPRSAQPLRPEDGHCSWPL

[2] = molecular target: T1, human PD-1 (hPD-1) expressed on cells; test: cell based RBA (hPD-1/hPD-L1): blocking of Biotin-hPD-L1 binding to CHOK1-hPD-1 cells, flow cytometry
hPD-1mIg fusion protein [3] = molecular target: T2, hPD-1mIg fusion protein (human; mouse, UniProt Q15116 25-170); test: SPR, Biacore T200, hPD-1mIg immobilized at 33 RU on CM5, antibody as analyte
T2 construct: extracellular domain; also called hPD-mIg; not shown: CH2-CH3 domain of mouse IgG2a heavy chain (plasmid pmIgG)
T2 sequence (Q15116 25-170): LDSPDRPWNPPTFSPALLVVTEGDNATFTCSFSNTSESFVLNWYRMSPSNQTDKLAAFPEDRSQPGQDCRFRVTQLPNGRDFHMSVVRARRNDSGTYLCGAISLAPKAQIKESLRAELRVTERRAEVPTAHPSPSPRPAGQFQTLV

[4] = molecular target: T1, human PD-1 (hPD-1) expressed on cells; test: cell-based or functional assay
[5] = molecular target: T3, cynomolgus monkey PD-1 (cPD-1) expressed on cells (cynomolgus monkey, UniProt B0LAJ3 25-288); test: flow cytometry, FACS binding to CHOK1-cPD-1 cells
T3 construct: also called CHOK1-cPD-1; PD-1 on cynomolgus monkey T cell
T3 sequence (B0LAJ3 entry or part of it limits assumed): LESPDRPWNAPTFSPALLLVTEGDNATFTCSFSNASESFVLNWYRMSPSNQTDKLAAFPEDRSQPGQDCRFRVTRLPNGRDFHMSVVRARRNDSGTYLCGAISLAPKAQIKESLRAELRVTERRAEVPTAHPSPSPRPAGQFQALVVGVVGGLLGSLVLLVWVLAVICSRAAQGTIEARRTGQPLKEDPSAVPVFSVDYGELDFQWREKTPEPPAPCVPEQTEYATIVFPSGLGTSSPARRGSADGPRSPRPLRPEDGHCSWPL
Experimental: (§1) The bindings of the antibodies to hPD-1 and cross-reactivity to cynomolgus monkey PD-1 (cPD-1) were tested using hPD-1 or cPD-1 expressing CHOK1 cells by flow cytometry. CHOK1-hPD-1, CHOK1-cPD-1 and CHOK1 blank cells were incubated with a serial dilution of test articles followed by Alexa Fluor® 488 conjugated goat anti-human IgG (H+L) antibody, and analyzed using a FACSCanto II (BD Biosciences, San Jose, Calif.).

[6] = molecular target: T1, human PD-1 (hPD-1) expressed on cells; test: flow cytometry, FACS binding to CHOK1-hPD-1 cells
Experimental: as §1

hPD-1mIg fusion protein [7] = molecular target: T2, hPD-1mIg fusion protein; test: SPR, Biacore T100, hPD-1mIg immobilized on CM5, antibody as analyte
Experimental: The binding affinity and kinetics of the humanized PD-1 mAbs interact with hPD-1 protein was assessed with Biacore T100 (GE Healthcare Life Sciences). […] Nine different concentrations were tested for each sample. Detailed binding kinetic parameters (association rate, Ka, dissociation rate, Kd, and affinity constant, KD) can be determined by full kinetic analysis.

Row | Molecule | EC50 (read off the curve) [5] [nM] | EC50 (read off the curve) [6] [nM] | further results
1 | control human IgG4 (antibody) | – | – | EC50 of luciferase signal (RLU), PD-1/PD-L1 Blockade Bioassay with Jurkat-PD1 and CHO-PD-L1 cells; the Ctrl IgG4 curve is flat at about 270000 RLU and never rises [1]: 12.4 µg/mL; Inhibition rate [2]: 4.8%
2 | B1 | – | – | fold slower dissociation rate Kd than the two commercial antibodies (Pembrolizumab, Nivolumab) (hPD-1mIg fusion protein [3]): 10 times; EC50 of luciferase signal (RLU), PD-1/PD-L1 Blockade Bioassay with Jurkat-PD1 and CHO-PD-L1 cells [4]: 0.224 µg/mL
3 | B2 | ~2 | ~0.9 | –
4 | B3 | ~2 | ~0.9 | –
5 | B4 | ~2 | ~0.9 | –
6 | B5 | – | – | kon (hPD-1mIg fusion protein [7]): 119000 M⁻¹ s⁻¹
